For the series, the target named is T1, BRB1 tyrosine kinase substrate peptide.
T1 chain: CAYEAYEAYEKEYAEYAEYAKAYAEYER

B1: BMX (protein)
chain: MDTKSILEELLLKRSQQKKKMSPNNYKERLFVLTKTNLSYYEYDKMKRGSRKGSIEIKKIRCVEKVNLEEQTPVERQYPFQIVYKDGLLYVYASNEESRSQWLKALQKEIRGNPHLLVKYHSGFFVDGKFLCCQQSCKAAPGCTLWEAYANLHTAVNEEKHRVPTFPDRVLKIPRAVPVLKMDAPSSSTTLAQYDNESKKNYGSQPPSSSTSLAQYDSNSKKIYGSQPNFNMQYIPREDFPDWWQVRKLKSSSSSEDVASSNQKERNVNHTTSKISWEFPESSSSEEEENLDDYDWFAGNISRSQSEQLLRQKGKEGAFMVRNSSQVGMYTVSLFSKAVNDKKGTVKHYHVHTNAENKLYLAENYCFDSIPKLIHYHQHNSAGMITRLRHPVSTKANKVPDSVSLGNGIWELKREEITLLKELGSGQFGVVQLGKWKGQYDVAVKMIKEGSMSEDEFFQEAQTMMKLSHPKLVKFYGVCSKEYPIYIVTEYISNGCLLNYLRSHGKGLEPSQLLEMCYDVCEGMAFLESHQFIHRDLAARNCLVDRDLCVKVSDFGMTRYVLDDQYVSSVGTKFPVKWSAPEVFHYFKYSSKSDVWAFGILMWEVFSLGKQPYDLYDNSQVVLKVSQGHRLYRPHLASDTIYQIMYSCWHELPEKRPTFQQLLSSIEPLREKDKH
B1: the Signal to Noise ratio with BRB1 Peptide (TR-FRET kinase assay; kinase 0.5 nM) stood at 7.1.

B2: ROR2 (protein)
chain: VCMCRNKQKASASTPQRRQLMASPSQDMEMPLINQHKQAKLKEISLSAVRFMEELGEDRFGKVYKGHLFGPAPGEQTQAVAIKTLKDKAEGPLREEFRHEAMLRARLQHPNVVCLLGVVTKDQPLSMIFSYCSHGDLHEFLVMRSPHSDVGSTDDDRTVKSALEPPDFVHLVAQIAAGMEYLSSHHVVHKDLATRNVLVYDKLNVKISDLGLFREVYAADYYKLLGNSLLPIRWMAPEAIMYGKFSIDSDIWSYGVVLWEVFSYGLQPYCGYSNQDVVEMIRNRQVLPCPDDCPAWVYALMIECWNEFPSRRPRFKDIHSRLRAWGNLSNYNSSAQTSGASNTTQTSSLSTSPVSNVSNARYVGPKQKAPPFPQPQFIPMKGQIRPMVPPPQLYVPVNGYQPVPAYGAYLPNFYPVQIPMQMAPQQVPPQMVPKPSSHHSGSGSTSTGYVTTAPSNTSMADRAALLSEGADDTQNAPEDGAQSTVQEAEEEEEGSVPETELLGDCDTLQVDEAQVQLEA
On to B2, for which the Signal to Noise Ratio with BRB1 Peptide (TR-FRET kinase assay; kinase 20 nM) is 1.

B3: MER (protein)
chain: KRVQETKFGNAFTEEDSELVVNYIAKKSFCRRAIELTLHSLGVSEELQNKLEDVVIDRNLLILGKILGEGEFGSVMEGNLKQEDGTSLKVAVKTMKLDNSSQREIEEFLSEAACMKDFSHPNVIRLLGVCIEMSSQGIPKPMVILPFMKYGDLHTYLLYSRLETGPKHIPLQTLLKFMVDIALGMEYLSNRNFLHRDLAARNCMLRDDMTVCVADFGLSKKIYSGDYYRQGRIAKMPVKWIAIESLADRVYTSKSDVWAFGVTMWEIATRGMTPYPGVQNHEMYDYLLHGHRLKQPEDCLDELYEIMYSCWRTDPLDRPTFSVLRLQLEKLLESLPDVRNQADVIYVNTQLLESSEGLAQGSTLAPLDLNIDPDSIIASCTPRAAISVVTAEVHDSKPHEGRYILNGGSEEWEDLTSAPSAAVTAEKNSVLPGERLVRNGVSWSHSSMLPLGSSLPDELLFADDSSEGSEVLM
B3: the Signal to Noise ratio with BRB1 Peptide (TR-FRET kinase assay; kinase 0.25 nM) stood at 12.9.

B4: PDGFRa (protein)
chain: KQKPRYEIRWRVIESISPDGHEYIYVDPMQLPYDSRWEFPRDGLVLGRVLGSGAFGKVVEGTAYGLSRSQPVMKVAVKMLKPTARSSEKQALMSELKIMTHLGPHLNIVNLLGACTKSGPIYIITEYCFYGDLVNYLHKNRDSFLSHHPEKPKKELDIFGLNPADESTRSYVILSFENNGDYMDMKQADTTQYVPMLERKEVSKYSDIQRSLYDRPASYKKKSMLDSEVKNLLSDDNSEGLTLLDLLSFTYQVARGMEFLASKNCVHRDLAARNVLLAQGKIVKICDFGLARDIMHDSNYVSKGSTFLPVKWMAPESIFDNLYTTLSDVWSYGILLWEIFSLGGTPYPGMMVDSTFYNKIKSGYRMAKPDHATSEVYEIMVKCWNSEPEKRPSFYHLSEIVENLLPGQYKKSYEKIHLDFLKSDHPAVARMRVDSDNAYIGVTYKNEEDKLKDWEGGLDEQRLSADSGYIIPLPDIDPVPEEEDLGKRNRHSSQTSEESAIETGSSSSTFIKREDETIEDIDMMDDIGIDSSDLVEDSFL
Turning to B4, the Signal to Noise ratio with BRB1 Peptide (TR-FRET kinase assay; kinase 0.5 nM) is 8.

B5: RET (protein)
chain: HCYHKFAHKPPISSAEMTFRRPAQAFPVSYSSSGARRPSLDSMENQVSVDAFKILEDPKWEFPRKNLVLGKTLGEGEFGKVVKATAFHLKGRAGYTTVAVKMLKENASPSELRDLLSEFNVLKQVNHPHVIKLYGACSQDGPLLLIVEYAKYGSLRGFLRESRKVGPGYLGSGGSRNSSSLDHPDERALTMGDLISFAWQISQGMQYLAEMKLVHRDLAARNILVAEGRKMKISDFGLSRDVYEEDSYVKRSQGRIPVKWMAIESLFDHIYTTQSDVWSFGVLLWEIVTLGGNPYPGIPPERLFNLLKTGHRMERPDNCSEEMYRLMLQCWKQEPDKRPVFADISKDLEKMMVKRRDYLDLAASTPSDSLIYDDGLSEEETPLVDCNNAPLPRALPSTWIENKLYGMSDPNWPGESPVPLTRADGTNTGFPRYPNDSVYANWMLSPSAAKLMDTFDS
Regarding B5, the Signal to Noise ratio with BRB1 Peptide (TR-FRET kinase assay; kinase 0.5 nM) is 20.3.

B6: RON (protein)
chain: SYWWRRKQLVLPPNLNDLASLDQTAGATPLPILYSGSDYRSGLALPAIDGLDSTTCVHGASFSDSEDESCVPLLRKESIQLRDLDSALLAEVKDVLIPHERVVTHSDRVIGKGHFGVVYHGEYIDQAQNRIQCAIKSLSRITEMQQVEAFLREGLLMRGLNHPNVLALIGIMLPPEGLPHVLLPYMCHGDLLQFIRSPQRNPTVKDLISFGLQVARGMEYLAEQKFVHRDLAARNCMLDESFTVKVADFGLARDILDREYYSVQQHRHARLPVKWMALESLQTYRFTTKSDVWSFGVLLWELLTRGAPPYRHIDPFDLTHFLAQGRRLPQPEYCPDSLYQVMQQCWEADPAVRPTFRVLVGEVEQIVSALLGDHYVQLPATYMNLGPSTSHEMNVRPEQPQFSPMPGNVRRPRPLSEPPRPT
On to B6, for which the Signal to Noise ratio with BRB1 Peptide (TR-FRET kinase assay; kinase 0.25 nM) is 3.5.

B7: PDGFRβ (protein)
chain: QKKPRYEIRWKVIESVSSDGHEYIYVDPMQLPYDSTWELPRDQLVLGRTLGSGAFGQVVEATAHGLSHSQATMKVAVKMLKSTARSSEKQALMSELKIMSHLGPHLNVVNLLGACTKGGPIYIITEYCRYGDLVDYLHRNKHTFLQHHSDKRRPPSAELYSNALPVGLPLPSHVSLTGESDGGYMDMSKDESVDYVPMLDMKGDVKYADIESSNYMAPYDNYVPSAPERTCRATLINESPVLSYMDLVGFSYQVANGMEFLASKNCVHRDLAARNVLICEGKLVKICDFGLARDIMRDSNYISKGSTFLPLKWMAPESIFNSLYTTLSDVWSFGILLWEIFTLGGTPYPELPMNEQFYNAIKRGYRMAQPAHASDEIYEIMQKCWEEKFEIRPPFSQLVLLLERLLGEGYKKKYQQVDEEFLRSDHPAILRSQARLPGFHGLRSPLDTSSVLYTAVQPNEGDNDYIIPLPDPKPEVADEGPLEGSPSLASSTLNEVNTSSTISCDSPLEPQDEPEPEPQLELQVEPEPELEQLPDSGCPAPRAEAEDSFL
On to B7, for which the Signal to Noise ratio with BRB1 Peptide (TR-FRET kinase assay; kinase 0.25 nM) came to 4.7.

B8: MUSK (protein)
chain: CCRRRKQWKNKKRESAAVTLTTLPSELLLDRLHPNPMYQRMPLLLNPKLLSLEYPRNNIEYVRDIGEGAFGRVFQARAPGLLPYEPFTMVAVKMLKEEASADMQADFQREAALMAEFDNPNIVKLLGVCAVGKPMCLLFEYMAYGDLNEFLRSMSPHTVCSLSHSDLSMRAQVSSPGPPPLSCAEQLCIARQVAAGMAYLSERKFVHRDLATRNCLVGENMVVKIADFGLSRNIYSADYYKANENDAIPIRWMPPESIFYNRYTTESDVWAYGVVLWEIFSYGLQPYYGMAHEEVIYYVRDGNILSCPENCPVELYNLMRLCWSKLPADRPSFTSIHRILERMCERAEGTVSV
In the case of B8, the Signal to Noise Ratio with BRB1 Peptide (TR-FRET kinase assay; kinase 1 nM) was found to be 3.1.

B9: LTK (protein)
chain: KQKKWQGLQEMRLPSPELELSKLRTSAIRTAPNPYYCQVGLGPAQSWPLPPGVTEVSPANVTLLRALGHGAFGEVYEGLVIGLPGDSSPLQVAIKTLPELCSPQDELDFLMEALIISKFRHQNIVRCVGLSLRATPRLILLELMSGGDMKSFLRHSRPHLGQPSPLVMRDLLQLAQDIAQGCHYLEENHFIHRDIAARNCLLSCAGPSRVAKIGDFGMARDIYRASYYRRGDRALLPVKWMPPEAFLEGIFTSKTDSWSFGVLLWEIFSLGYMPYPGRTNQEVLDFVVGGGRMDPPRGCPGPVYRIMTQCWQHEPELRPSFASILERLQYCTQDPDVLNSLLPMELGPTPEEEGTSGLGNRSLECLRPPQPQELSPEKLKSWGGSPLGPWLSSGLKPLKSRGLQPQNLWNPTYRS
On to B9, for which the Signal to Noise Ratio with BRB1 Peptide (TR-FRET kinase assay; kinase 1 nM) was determined as 13.7.

B10: ROR1 (protein)
chain: CRNNQKSSSAPVQRQPKHVRGQNVEMSMLNAYKPKSKAKELPLSAVRFMEELGECAFGKIYKGHLYLPGMDHAQLVAIKTLKDYNNPQQWTEFQQEASLMAELHHPNIVCLLGAVTQEQPVCMLFEYINQGDLHEFLIMRSPHSDVGCSSDEDGTVKSSLDHGDFLHIAIQIAAGMEYLSSHFFVHKDLAARNILIGEQLHVKISDLGLSREIYSADYYRVQSKSLLPIRWMPPEAIMYGKFSSDSDIWSFGVVLWEIFSFGLQPYYGFSNQEVIEMVRKRQLLPCSEDCPPRMYSLMTECWNEIPSRRPRFKDIHVRLRSWEGLSSHTSSTTPSGGNATTQTTSLSASPVSNLSNPRYPNYMFPSQGITPQGQIAGFIGPPIPQNQRFIPINGYPIPPGYAAFPAAHYQPTGPPRVIQHCPPPKSRSPSSASGSTSTGHVTSLPSSGSNQEANIPLLPHMSIPNHPGGMGITVFGNKSQKPYKIDSKQASLLGDANIHGHTESMISAEL
For B10, the Signal to Noise Ratio with BRB1 Peptide (TR-FRET kinase assay; kinase 20 nM) came to 1.1.

B11: MET (protein)
chain: KKRKQIKDLGSELVRYDARVHTPHLDRLVSARSVSPTTEMVSNESVDYRATFPEDQFPNSSQNGSCRQVQYPLTDMSPILTSGDSDISSPLLQNTVHIDLSALNPELVQAVQHVVIGPSSLIVHFNEVIGRGHFGCVYHGTLLDNDGKKIHCAVKSLNRITDIGEVSQFLTEGIIMKDFSHPNVLSLLGICLRSEGSPLVVLPYMKHGDLRNFIRNETHNPTVKDLIGFGLQVAKGMKYLASKKFVHRDLAARNCMLDEKFTVKVADFGLARDMYDKEYYSVHNKTGAKLPVKWMALESLQTQKFTTKSDVWSFGVLLWELMTRGAPPYPDVNTFDITVYLLQGRRLLQPEYCPDPLYEVMLKCWHPKAEMRPSFSELVSRISAIFSTFIGEHYVHVNATYVNVKCVAPYPSLLSSEDNADDEVDTRPASFWETS
Take B11: the Signal to Noise ratio with BRB1 Peptide (TR-FRET kinase assay; kinase 0.5 nM) was determined as 24.2.
